The record followed here is US20190071467A1.

Experiment [1] concerns the target VDAC1 on intact mitochondria purified from NSC34 cells (mouse (NSC34 cell line)) (UniProt Q60932). As to the kind of experiment: competition with SOD1-G93A on intact NSC34 mitochondria, fractionation, immunoblot. For orientation: A western blot detects proteins with antibodies after separation by electrophoresis.
Experiment [2] has as its target human VDAC1, recombinant, C-terminal His-tag, refolded in LDAO (human) (UniProt P21796). As to the kind of experiment: competition pull-down on VDAC1-coated magnetic beads (30 uM VDAC1, 6.5 uM SOD1-G93A), anti-SOD1 immunoblot.
UniProt P21796, sequence (P21796 other isoform, or with tags, fused parts or gaps limits assumed): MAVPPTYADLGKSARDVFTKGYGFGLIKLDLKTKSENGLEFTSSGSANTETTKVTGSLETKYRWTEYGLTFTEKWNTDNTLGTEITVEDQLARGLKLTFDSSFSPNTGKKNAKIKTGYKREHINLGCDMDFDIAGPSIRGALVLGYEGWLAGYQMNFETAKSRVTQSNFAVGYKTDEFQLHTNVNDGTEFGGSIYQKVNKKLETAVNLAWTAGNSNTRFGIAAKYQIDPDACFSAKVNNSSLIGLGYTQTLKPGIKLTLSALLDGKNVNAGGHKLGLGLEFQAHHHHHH

UniProt Q60932, sequence (Q60932 whole entry): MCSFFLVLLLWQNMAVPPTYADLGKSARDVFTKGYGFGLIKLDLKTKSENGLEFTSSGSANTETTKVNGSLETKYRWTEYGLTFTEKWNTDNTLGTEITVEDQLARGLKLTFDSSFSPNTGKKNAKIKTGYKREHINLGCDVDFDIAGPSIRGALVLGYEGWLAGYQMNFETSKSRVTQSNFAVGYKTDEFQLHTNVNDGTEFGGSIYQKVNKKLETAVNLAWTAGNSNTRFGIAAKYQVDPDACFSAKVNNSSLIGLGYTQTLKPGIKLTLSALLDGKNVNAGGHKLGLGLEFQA

IAAQLLAYYFT [synthetic peptide NHK1] returned a percent decrease of SOD1-G93A bound to mitochondria at 60 µM NHK1 in experiment [1] of 90%. Moreover, in experiment [2], the percent reduction of SOD1-G93A bound to VDAC1 at 10 µM NHK1 came out at 40% and the percent reduction of SOD1-G93A bound to VDAC1 at 25 µM NHK1 worked out at 80%.
